Drawing on paper PMC11160672, this text covers stoichiometry N for one substance.

The test deals with Biotin carboxylase AccC (E. coli) (UniProt P24182). Briefly: SEC.

What is called stoichiometry N is a count of units in the complex or per binding partner. Substance “Biotin-carboxy carrier protein AccB (from UniProt P0ABD8 1-156) (natural protein)” had a stoichiometry N of 1.
